Measured values reported in PMC10397247.

Key:
Assay in all cases: two-hybrid library CCmax;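 also: natural log of median RNA to DNA barcode read ratio; higher means stronger binding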
[1] = target: T1, P1-AA
T1 chain: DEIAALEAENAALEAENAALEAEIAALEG

[2] = target: T2, P10-AA; details: mean of both orientations
T2 chain: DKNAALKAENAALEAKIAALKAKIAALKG

[3] = target: T3, P11-AA; details: mean of both orientations
T3 chain: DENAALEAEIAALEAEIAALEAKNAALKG

[4] = target: T4, P12-AA; details: mean of both orientations
T4 chain: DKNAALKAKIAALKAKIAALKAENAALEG

[5] = target: T5, P2-AA-12HAA-D; details: mean of both orientations
T5 chain: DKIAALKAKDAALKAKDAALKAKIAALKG

[6] = target: T6, P2-AA-12HAA-E; details: mean of both orientations
T6 chain: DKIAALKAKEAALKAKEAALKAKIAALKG

[7] = target: T7, P2-AA-12HAA-H; details: mean of both orientations
T7 chain: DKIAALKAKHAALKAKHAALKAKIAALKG

[8] = target: T8, P2-AA-12HAA-I; details: mean of both orientations
T8 chain: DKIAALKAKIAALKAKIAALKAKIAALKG

[9] = target: T9, P2-AA-12HAA-K; details: mean of both orientations
T9 chain: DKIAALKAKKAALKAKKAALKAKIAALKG

[10] = target: T10, P2-AA-12HAA-L; details: mean of both orientations
T10 chain: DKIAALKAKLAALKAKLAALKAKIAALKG

[11] = target: T11, P2-AA-12HAA-R; details: mean of both orientations
T11 chain: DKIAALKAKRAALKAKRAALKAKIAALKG

[12] = target: T12, P2-AA-12HAA-S; details: mean of both orientations
T12 chain: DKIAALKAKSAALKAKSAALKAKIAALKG

[13] = target: T13, P2-AA-12HAA-T; details: mean of both orientations
T13 chain: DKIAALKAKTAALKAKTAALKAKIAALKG

[14] = target: T14, P2-AA-12HAA-V; details: mean of both orientations
T14 chain: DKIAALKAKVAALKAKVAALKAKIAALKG

[15] = target: T15, P2-AA-12HAA-Y; details: mean of both orientations
T15 chain: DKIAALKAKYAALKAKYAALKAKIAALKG

[16] = target: T16, P2-AA-12HGe-A; details: mean of both orientations
T16 chain: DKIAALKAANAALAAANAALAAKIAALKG

[17] = target: T17, P2-AA-12HGe-D; details: mean of both orientations
T17 chain: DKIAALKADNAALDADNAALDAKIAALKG

[18] = target: T18, P2-AA-12HGe-E; details: mean of both orientations
T18 chain: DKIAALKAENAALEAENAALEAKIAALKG

[19] = target: T19, P2-AA-12HGe-H; details: mean of both orientations
T19 chain: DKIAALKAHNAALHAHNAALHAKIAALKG

[20] = target: T20, P2-AA-12HGe-M; details: mean of both orientations
T20 chain: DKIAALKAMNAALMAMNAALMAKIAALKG

[21] = target: T21, P2-AA-12HGe-Q; details: mean of both orientations
T21 chain: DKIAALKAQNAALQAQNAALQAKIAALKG

[22] = target: T22, P2-AA-12HGe-R; details: mean of both orientations
T22 chain: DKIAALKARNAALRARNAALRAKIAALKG

[23] = target: T23, P2-AA-12HGe-S; details: mean of both orientations
T23 chain: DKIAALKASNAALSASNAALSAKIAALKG

[24] = target: T24, P2-AA-12HGe-T; details: mean of both orientations
T24 chain: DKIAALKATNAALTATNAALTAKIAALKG

[25] = target: T25, P2-AA-12HGe-W; details: mean of both orientations
T25 chain: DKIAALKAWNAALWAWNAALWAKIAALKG

[26] = target: T26, P2-AA-1HAA-D; details: mean of both orientations
T26 chain: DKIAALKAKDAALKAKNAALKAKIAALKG

[27] = target: T27, P2-AA-1HAA-E; details: mean of both orientations
T27 chain: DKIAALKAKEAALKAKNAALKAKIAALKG

[28] = target: T28, P2-AA-1HAA-H; details: mean of both orientations
T28 chain: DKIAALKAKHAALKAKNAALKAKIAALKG

[29] = target: T29, P2-AA-1HAA-I; details: mean of both orientations
T29 chain: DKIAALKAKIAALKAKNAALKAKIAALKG

[30] = target: T30, P2-AA-1HAA-R; details: mean of both orientations
T30 chain: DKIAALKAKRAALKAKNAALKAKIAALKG

[31] = target: T31, P2-AA-1HAA-S; details: mean of both orientations
T31 chain: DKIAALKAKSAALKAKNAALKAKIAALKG

[32] = target: T32, P2-AA-1HAA-T; details: mean of both orientations
T32 chain: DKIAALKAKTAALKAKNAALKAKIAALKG

[33] = target: T33, P2-AA-1HAA-V; details: mean of both orientations
T33 chain: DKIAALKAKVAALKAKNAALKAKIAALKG

[34] = target: T34, P2-AA-1HGe-A; details: mean of both orientations
T34 chain: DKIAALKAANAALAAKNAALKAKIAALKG

[35] = target: T35, P2-AA-1HGe-D; details: mean of both orientations
T35 chain: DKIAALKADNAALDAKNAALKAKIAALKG

[36] = target: T36, P2-AA-1HGe-M; details: mean of both orientations
T36 chain: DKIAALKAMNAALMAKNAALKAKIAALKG

[37] = target: T37, P2-AA-1HGe-Q; details: mean of both orientations
T37 chain: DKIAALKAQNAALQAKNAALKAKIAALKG

[38] = target: T38, P2-AA-1HGe-T; details: mean of both orientations
T38 chain: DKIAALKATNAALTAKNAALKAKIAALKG

[39] = target: T39, P2-AA-1HGe-W; details: mean of both orientations
T39 chain: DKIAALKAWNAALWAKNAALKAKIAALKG

[40] = target: T40, P2-AA; details: mean of both orientations
T40 chain: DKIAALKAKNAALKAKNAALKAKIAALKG

[41] = target: T41, P3-AA; details: mean of both orientations
T41 chain: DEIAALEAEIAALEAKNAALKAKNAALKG

[42] = target: T42, P4-AA; details: mean of both orientations
T42 chain: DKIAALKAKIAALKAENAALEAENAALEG

[43] = target: T43, P7-AA; details: mean of both orientations
T43 chain: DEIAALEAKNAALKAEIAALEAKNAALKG

[44] = target: T44, P8-AA; details: mean of both orientations
T44 chain: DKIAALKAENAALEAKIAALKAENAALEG

[45] = target: T45, P9-AA; details: mean of both orientations
T45 chain: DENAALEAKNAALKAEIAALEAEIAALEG

[46] = target: T46, zCON9_A
T46 chain: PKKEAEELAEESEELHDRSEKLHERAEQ

[47] = target: T47, zCON9_B; details: mean of both orientations
T47 chain: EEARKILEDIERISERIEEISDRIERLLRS

[48] = target: T48, zCON9_D; details: mean of both orientations
T48 chain: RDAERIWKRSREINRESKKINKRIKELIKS

interaction score [1]: -1.9
interaction score [2]: -0.307
interaction score [3]: -1.27
interaction score [4]: -0.335
interaction score [5]: -1.91
interaction score [6]: -0.168
interaction score [7]: 1.67
interaction score [8]: 1.38
interaction score [9]: 1.32
interaction score [10]: 0.342
interaction score [11]: 1.86
interaction score [12]: 1.74
interaction score [13]: 1.34
interaction score [14]: 1.26
interaction score [15]: 1.57
interaction score [16]: 1.83
interaction score [17]: -1.71
interaction score [18]: 0.914
interaction score [19]: 2.06
interaction score [20]: 1.8
interaction score [21]: 1.62
interaction score [22]: 2.37
interaction score [23]: 0.568
interaction score [24]: 1.19
interaction score [25]: 1.66
interaction score [26]: 1.71
interaction score [27]: 1.78
interaction score [28]: 2.1
interaction score [29]: 2.01
interaction score [30]: 1.51
interaction score [31]: 1.81
interaction score [32]: 1.69
interaction score [33]: 1.86
interaction score [34]: 2.03
interaction score [35]: 1.9
interaction score [36]: 1.87
interaction score [37]: 1.97
interaction score [38]: 2.12
interaction score [39]: 2.42
interaction score [40]: 2.11
interaction score [41]: -0.804
interaction score [42]: -1.71
interaction score [43]: -1.7
interaction score [44]: -1.57
interaction score [45]: -1.49
interaction score [46]: -1.8
interaction score [47]: -1.67
interaction score [48]: -2.59
Binder: DEIAALEAENAALEAENAALEAEIAALEG [P1-AA]
